Experimental data reported in patent US20250277026A1 (NOVAROCK BIOTHERAPEUTICS, published 2025).
Changes are numbered by the printed parent chain. Numbers in names are those of the source.

T1: human Claudin-6 (human, UniProt P56747 1-220)
T1 construct: also called CLDN6
T1 sequence: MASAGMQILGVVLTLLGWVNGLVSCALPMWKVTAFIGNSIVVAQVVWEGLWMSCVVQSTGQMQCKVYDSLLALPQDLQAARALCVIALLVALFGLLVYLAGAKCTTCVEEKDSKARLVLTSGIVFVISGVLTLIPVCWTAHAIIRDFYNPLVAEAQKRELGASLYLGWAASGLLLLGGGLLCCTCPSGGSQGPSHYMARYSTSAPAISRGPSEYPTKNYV

T2: human Claudin-3 (human, UniProt O15551 1-220)
T2 construct: On transfected CHO-K1 cells, or endogenous on MCF7 cells; also called CLDN3
T2 sequence: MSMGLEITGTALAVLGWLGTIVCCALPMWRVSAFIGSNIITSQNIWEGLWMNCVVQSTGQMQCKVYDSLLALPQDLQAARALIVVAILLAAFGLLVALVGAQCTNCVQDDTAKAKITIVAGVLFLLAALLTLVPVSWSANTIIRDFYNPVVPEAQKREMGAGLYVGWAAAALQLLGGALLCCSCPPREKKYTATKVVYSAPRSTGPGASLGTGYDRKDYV

T3: human Claudin-4 (human, UniProt O14493 1-209)
T3 construct: On transfected CHO-K1 cells, or endogenous on MCF7 cells; also called CLDN4
T3 sequence: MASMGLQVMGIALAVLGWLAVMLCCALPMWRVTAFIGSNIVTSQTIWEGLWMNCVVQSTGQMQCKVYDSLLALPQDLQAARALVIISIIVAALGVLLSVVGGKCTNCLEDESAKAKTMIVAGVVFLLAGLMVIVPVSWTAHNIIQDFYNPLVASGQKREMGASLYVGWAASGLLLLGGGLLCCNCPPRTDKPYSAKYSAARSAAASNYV

T4: human Claudin-9 (human, UniProt O95484 1-217)
T4 construct: On transfected HEK293 cells; also called CLDN9
T4 sequence: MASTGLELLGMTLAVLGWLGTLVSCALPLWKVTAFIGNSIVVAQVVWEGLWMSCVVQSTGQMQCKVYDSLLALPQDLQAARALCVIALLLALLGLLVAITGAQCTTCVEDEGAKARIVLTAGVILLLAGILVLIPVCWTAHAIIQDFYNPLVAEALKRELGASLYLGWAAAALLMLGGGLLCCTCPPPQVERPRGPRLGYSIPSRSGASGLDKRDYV

B1: NR.N6.Ab3 (antibody, V domains shown)
VH: QVQLVESGGGVVQPGRSLRLSCAASGFTFSGYGMHWVRQAPGKGLEWVAAIWYDGSNKYYADSVKGRFTISSDNSKNTLYLQMKSLRAEDTAVYYCAREWYSSGWSMYDVFDIWGQGTMVTVSS
VL: QTVVTQEPSFSVSPGGTVTLTCGLSSGSVSTSYYPSWYQQTPGQAPRTLIYSTNTRSSGVPDRFSGSILGNKAALTITGAQADDESDYYCVLYMGSGIWVFGGGTKLTVL
B2: NR.N6.Ab4 (antibody, V domains shown)
VH: QVQLVESGGGVVQPGRSLRLSCAASGFIFSSYGMHWVRQAPGKGLEWVAVIWYDGSNKFYADSVKGRFTISRDNSRKTLYLQMNSLRAEDTAVYYCARDGRYFDWGGSYYYYYGMDVWGQGTTVTVSS
VL: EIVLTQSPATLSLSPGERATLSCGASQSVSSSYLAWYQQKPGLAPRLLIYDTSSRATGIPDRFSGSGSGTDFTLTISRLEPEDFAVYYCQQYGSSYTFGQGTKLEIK
B3: NR.N6.Ab5 (antibody, V domains shown)
VH: B2 VH with V11A, V50I, Y53F, S56R, F59N, R76K, Q82E, N84S
VL: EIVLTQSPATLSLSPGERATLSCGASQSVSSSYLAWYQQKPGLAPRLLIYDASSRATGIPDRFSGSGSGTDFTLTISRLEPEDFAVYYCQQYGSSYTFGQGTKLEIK
notes: LCDR 41, 45, 43); also called NR.4.N6.Ab5
B4: NR.N6.Ab2 (antibody, V domains shown)
VH: QVQLVESGGGVVQPGRSLRLSCTASGFTFSHYGMHWVRQAPGKGLEWVSFLWFDGSKDNYADSVKGRFTISRDNSKNMLYLRMDSLRAEDTAVYYCARNGGLTIFDYWGQGTLVTVSS
VL: AIQLTQSPSSLSASVGDRVTITCRASQGINSWLAWYQQKPEKAPKSLIYAASSLQSGVPSRFSGSGSGTDFTLTISSLQPEDFATYYCQQYNFYPYTFGQGTKLEII
notes: hybridoma-purified antibody in the Claudin-3-CHO-K1, Claudin-4-CHO-K1 and MCF7 assays
B5: NR.N6.Ab1 (antibody, human IgG1, V domains shown)
VH: QVQLVQSGAEVKKPGASVKVSCKASGNTFTSYDINWVRQATGQGLEWMGWMNPNSGNTGYAQKFQGRVTMTRNTSISTAYMELSSLRSEDTAVYYCVYYNYVWGSFRFDDWGQGTLVTVSS
VL: DIQLTQSPSFLSASVGDRVTITCRASQGISSYLAWYQQKPGKAPKLLIYAASTLQSGVPSRFSGSGSGTEFTLAVSSLQPEDFATYYCQQLNSYPYTFGQGTKLEIK
notes: Human variable domains from Trianni mice; also called NR.NR6.Ab1
B6: NR.N6.Ab1 variant N73D (antibody, V domains shown)
VH: B5 VH with N73D
VL: B5 VL
notes: the LALA changes of the constant region are explained nowhere; also called NR.N6.Ab1N73D; NR.N6.Ab1 N73D

Assays:
human Claudin-6 [1] = molecular target: T1, human Claudin-6; experiment: FACS dose response, NEC8 cells (endogenous CLDN6)
Experimental: (§1) Cells were fixed with 2% PFA (Alfa Aesar, catalog number: J61899) for 15 minutes at 4° C. and then washed. […] Flow cytometric analyses were performed on a flow cytometry instrument (Intellicyte, IQue plus, Sartorius).
(§2) The anti-CLDN6 antibodies were also evaluated for their binding affinity to Claudin-6 overexpressing cell lines by FACS.

human Claudin-6 [2] = molecular target: T1, human Claudin-6; experiment: FACS dose response, Claudin-6-HEK293 cells
Experimental: as §2

human Claudin-3 [3] = molecular target: T2, human Claudin-3; experiment: FACS, Claudin-3-CHO-K1 cells, serial dilution, MFI
Experimental: (§3) Briefly, Claudin-6-CHO-K1 cells verse parental CHO-K1 cells were incubated with anti-CLDN6 antibodies for 2 hours at 4° C. Cells were fixed with 2% PFA (Alfa Aesar, cat #: J61899) for 15 minutes at 4° C. and then washed. […] Flow cytometric analyses were performed on a flow cytometry instrument (Intellicyte, IQue plus, Sartorius).

human Claudin-6 [4] = molecular target: T1, human Claudin-6; experiment: cell-based or functional assay
human Claudin-6 [5] = molecular target: T1, human Claudin-6; experiment: cell-based or functional assay; remark: listed apart in the source
human Claudin-6 [6] = molecular target: T1, human Claudin-6; experiment: FACS dose response, Claudin-6-CHO-K1 cells
Experimental: as §2

human Claudin-6 [7] = molecular target: T1, human Claudin-6; experiment: FACS, NEC8 cells (endogenous CLDN6)
Experimental: as §1

human Claudin-6 [8] = molecular target: T1, human Claudin-6; experiment: FACS, Claudin-6-HEK293 cells, 5 µg/ml
human Claudin-3 [9] = molecular target: T2, human Claudin-3; experiment: FACS, Claudin-3-CHO-K1 cells, serial dilution, MFI; remark: listed apart in the source
Experimental: as §3

human Claudin-4 [10] = molecular target: T3, human Claudin-4; experiment: FACS, Claudin-4-CHO-K1 cells, serial dilution, MFI
Experimental: as §3

human Claudin-4 [11] = molecular target: T3, human Claudin-4; experiment: FACS, Claudin-4-CHO-K1 cells, serial dilution, MFI; remark: listed apart in the source
Experimental: as §3

human Claudin-3 [12] = molecular target: T2, human Claudin-3; experiment: FACS, Claudin-3-CHO-K1 cells, serial dilution, MFI; remark: listed apart in the source
Experimental: as §3

human Claudin-3 [13] = molecular target: T2, human Claudin-3; experiment: FACS on MCF7 cells, which endogenously express Claudin-3 and Claudin-4, MFI
human Claudin-4 [14] = molecular target: T3, human Claudin-4; experiment: FACS on Claudin-4-CHO-K1 cells, MFI
Experimental: as §3

human Claudin-6 [15] = molecular target: T1, human Claudin-6; experiment: FACS, NEC8 cells (endogenous CLDN6); remark: listed apart in the source
Experimental: as §1

human Claudin-4 [16] = molecular target: T3, human Claudin-4; experiment: FACS on Claudin-4-CHO-K1 cells, MFI relative to the isotype control
Experimental: as §3

human Claudin-6 [17] = molecular target: T1, human Claudin-6; experiment: FACS dose response, Claudin-6-CHO cells
Experimental: as §3

human Claudin-9 [18] = molecular target: T4, human Claudin-9; experiment: FACS, Claudin-9-HEK293 cells, 5 µg/ml
Experimental: (§4) The binding specificity of the disclosed anti-Claudin-6 antibodies were further assessed for binding to Claudin-9 by FACS. Briefly, Claudin-9-HEK293 cells (GenScript, Item #U3288DL180_4) were incubated with recombinant Claudin-6 antibodies for 2 hours at 4° C. Cells were fixed with 2% PFA (Alfa Aesar, cat #: J61899) for 15 minutes at 4° C. and then washed. […] Flow cytometric analyses were performed on a flow cytometry instrument (Intellicyte, IQue plus, Sartorius).

human Claudin-6 [19] = molecular target: T1, human Claudin-6; experiment: FACS dose response, Claudin-6-HEK293 cells; remark: listed apart in the source
human Claudin-6 [20] = molecular target: T1, human Claudin-6; experiment: cell-based or functional assay; remark: listed apart in the source
human Claudin-4 [21] = molecular target: T3, human Claudin-4; experiment: FACS on MCF7 cells, which endogenously express Claudin-3 and Claudin-4; MFI relative to the isotype control
human Claudin-3 [22] = molecular target: T2, human Claudin-3; experiment: as above
human Claudin-3 [23] = molecular target: T2, human Claudin-3; experiment: FACS on Claudin-3-CHO-K1 cells, MFI relative to the isotype control
Experimental: as §3

human Claudin-9 [24] = molecular target: T4, human Claudin-9; experiment: FACS dose response, Claudin-9-HEK293 cells
Experimental: as §4

human Claudin-6 [25] = molecular target: T1, human Claudin-6; experiment: cell-based or functional assay; remark: listed apart in the source
human Claudin-6 [26] = molecular target: T1, human Claudin-6; experiment: FACS, OV90 cells (endogenous CLDN6)
Experimental: as §1

human Claudin-6 [27] = molecular target: T1, human Claudin-6; experiment: FACS, Claudin-6-CHO-K1 cells, 5 µg/ml
Experimental: as §3

human Claudin-6 [28] = molecular target: T1, human Claudin-6; experiment: FACS, NEC8 cells (endogenous CLDN6), recombinant antibody
human Claudin-4 [29] = molecular target: T3, human Claudin-4; experiment: FACS on Claudin-4-CHO-K1 cells, MFI relative to the isotype control; remark: listed apart in the source
Experimental: as §3

human Claudin-6 [30] = molecular target: T1, human Claudin-6; experiment: FACS dose response, NEC8 cells (endogenous CLDN6); remark: listed apart in the source
human Claudin-6 [31] = molecular target: T1, human Claudin-6; experiment: FACS dose response, Claudin-6-HEK293 cells; remark: listed apart in the source
human Claudin-4 [32] = molecular target: T3, human Claudin-4; experiment: FACS on Claudin-4-CHO-K1 cells, MFI; remark: listed apart in the source
Experimental: as §3

human Claudin-4 [33] = molecular target: T3, human Claudin-4; experiment: FACS on MCF7 cells, which endogenously express Claudin-3 and Claudin-4; MFI relative to the isotype control; remark: listed apart in the source

Binder	EC50 (human Claudin-6 [1])	EC50 (human Claudin-6 [2])	ADCC reporter assay on NEC8 cells, EC50 (human Claudin-6 [4])	endocytosis killing (anti-hFc Fab-MMAF, CellTiter-Glo, 72 h) on NEC8 cells, EC50 (human Claudin-6 [5])	EC50 (human Claudin-6 [6])	fold MFI over isotype control (human Claudin-6 [7])	fold MFI over isotype control (human Claudin-6 [8])	fold MFI over isotype control (human Claudin-6 [15])	EC50 (human Claudin-6 [17])	fold MFI over isotype control (human Claudin-9 [18])	EC50 (human Claudin-6 [19])	endocytosis-mediated cytotoxicity on OV90 cells, EC50 (human Claudin-6 [20])	EC50 (human Claudin-9 [24])	fold MFI over isotype control (human Claudin-6 [26])	fold MFI over isotype control (human Claudin-6 [27])	EC50 (human Claudin-6 [30])	EC50 (human Claudin-6 [31])	further results
B1	3.27 nM	5.17 nM	6.43 nM	0.51 nM	4.69 nM	20 fold	31 fold											binding result (human Claudin-3 [3]): no binding (tested: log 1.5 (about 33 nM))
B2	8.34 nM	15.7 nM	9.83 nM	0.41 nM	4.79 nM	19 fold	23 fold											binding result (human Claudin-3 [9]): no binding (tested: log 1.5 (about 33 nM)); binding result (human Claudin-4 [10]): no binding (tested: log 1.5 (about 33 nM))
B3	5.92 nM	4.13 nM	3.78 nM	0.26 nM	3.99 nM	21 fold	24 fold											binding result (human Claudin-4 [11]): no binding (tested: log 1.5 (about 33 nM)); binding result (human Claudin-3 [12]): no binding (tested: log 1.5 (about 33 nM))
B4								25 fold	6.88 nM	53 fold	1 nM	2.32 nM	1.49 nM	17 fold	24 fold			binding result (human Claudin-3 [13]): no binding; binding result (human Claudin-4 [14]): no binding; fold MFI over isotype control (human Claudin-4 [16]): 0.9 x; fold MFI over isotype control (human Claudin-4 [21]): 1.1 x; fold MFI over isotype control (human Claudin-3 [22]): 1.1 x; fold MFI over isotype control (human Claudin-3 [23]): 0.8 x; endocytosis-mediated cytotoxicity (anti-hFc Fab-MMAF, CellTiter-Glo) on NEC8 cells, EC50 mean (St. Dev. 0.07) (human Claudin-6 [25]): 0.1 nM
B5			0.4 nM	0.14 nM				27 fold	0.97 nM	16 fold	0.55 nM	1.08 nM	6.72 nM	19 fold	28 fold	1.39 nM	0.63 nM	fold MFI over isotype control (human Claudin-6 [28]): 32 fold; fold MFI over isotype control (human Claudin-4 [29]): 1.1 x; endocytosis-mediated cytotoxicity (anti-hFc Fab-MMAF, CellTiter-Glo) on NEC8 cells, EC50 mean (St. Dev. 0.11) (human Claudin-6 [25]): 0.2 nM; binding result (human Claudin-4 [32]): no binding; fold MFI over isotype control (human Claudin-4 [33]): 0.9 x
B6																0.74 nM	0.42 nM	
